{"source": "paper PMC6180346", "about": "“Two Faces of CwlM, an Essential PknB Substrate, in Mycobacterium tuberculosis” (Cell Reports, 2018)", "assay_in_all_cases": "co-IP; recombinant CwlM (PknB-phosphorylated or non-phosphorylated) and the other recombinant protein, 10 μg each, in 20 mM KH2PO4 pH 7.0, 100 mM NaCl, 10 mM KCl, with anti-CwlM-IgG-Sepharose; bound and unbound on SDS-PAGE, Coomassie; densitometry as percent of the total amount used", "key": {"[1]": {"target": "Recombinant 6xHis-tagged CwlM, non-phosphorylated (M. tuberculosis) (UniProt L7N653)"}, "[2]": {"target": "Recombinant 6xHis-tagged CwlM, PknB-phosphorylated (M. tuberculosis) (UniProt L7N653)"}, "[3]": {"target": "T1, Recombinant 6xHis-tagged CwlM, non-phosphorylated (M. tuberculosis, UniProt L7N653 1-406)", "T1 construct": "also called non-phosphorylated recombinant CwlM; non-phosphorylated CwlM", "T1 sequence": "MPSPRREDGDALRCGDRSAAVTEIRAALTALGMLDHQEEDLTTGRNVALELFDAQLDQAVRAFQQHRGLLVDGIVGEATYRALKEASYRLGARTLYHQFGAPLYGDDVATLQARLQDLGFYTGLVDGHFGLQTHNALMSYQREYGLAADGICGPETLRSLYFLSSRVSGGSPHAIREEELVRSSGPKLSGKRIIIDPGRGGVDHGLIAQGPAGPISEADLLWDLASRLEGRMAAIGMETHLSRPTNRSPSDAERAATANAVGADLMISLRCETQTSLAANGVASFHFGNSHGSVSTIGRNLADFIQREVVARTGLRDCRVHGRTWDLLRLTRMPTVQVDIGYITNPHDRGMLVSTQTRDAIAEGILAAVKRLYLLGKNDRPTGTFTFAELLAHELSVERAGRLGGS", "conditions": "both partners purified"}}}
{"molecule": "Recombinant 6XHis-tagged MurJ ICD (domain or fragment)", "values": [{"measurement": "percent co-precipitated", "setting": "[1]", "result": 85, "unit": "%"}, {"measurement": "percent co-precipitated", "setting": "[2]", "result": 12, "unit": "%"}]}
{"molecule": "Recombinant 6xHis-tagged 6xHis-MurJ_(E541-F680) (domain or fragment, The N-terminal end of the tag is read from the printed name 6xHis-MurJ_(E541-F680); also called MurJ linker; linker region (E541-F680)) EARAALDAVRARIRSRRLKTGPQTQNVLDQSSRPGPVTYPERRRLAPPRGKSVVHEPIRRRPPEQVARAGRAKGPEVIDRPSENASFGAASGAELPRPVADELQLDAPAGRDPGPVSRPHPSDLQNGDLPADAARGPIAF", "values": [{"measurement": "binding result", "setting": "[3]", "result": "binds"}]}
